Experimental data published in the FLAb antibody collection (doi:10.7554/elife.23156).

B1: scFv; the commonest letter at each place (parent)
chain 1: EVKLDETGGGLVQPGRPMKLSCVASGFTFSDYWMNWVRQSPEKGLEWVAQIRNKPYNYETYYSDSVKGRFTISRDDSKSSVYLQMNNLRVEDMGIYYCTGSYYGMDYWGQGTSVTVS
chain 2: DVVMTQTPLSLPVSLGDQASISCRSSQSLVHSNGNTYLRWYLQKPGQSPKVLIYKVSNRFSGVPDRFSGSGSGTDFTLKISRVEAEDLGVYFCSQSTHVPWTFGGGTKLEIK

Experiments:
fluorescein = variants of: B1; experiment: Kd (Tite-Seq); details: with fluorescein; format: scFv 4-4-20, heavy + light
[1] = variants of: B1; experiment: yeast surface expression (ratio to wild type); higher = more expressed; details: format: scFv 4-4-20, heavy + light

## chain 1 EVKLDETGGGLVQPGRPMKLSCVASGFYFLDYWMNWVRQSPEKGLEWVAQIRNKPYNYETYYSDSVKGRFTISRDDSKSSVYLQMNNLRVEDMGIYYCTGSYYGMDYWGQGTSVTVS chain 2 DVVMTQTPLSLPVSLGDQASISCRSSQSLVHSNGNTYLRWYLQKPGQSPKVLIYKVSNRFSGVPDRFSGSGSGTDFTLKISRVEAEDLGVYFCSQSTHVPWTFGGGTKLEIK [chain 1 T28Y S30L]
fluorescein
  Kd: 0.00708 µM
[1]
  yeast surface expression: 0.792

## chain 1 EVKLDETGGGLVQPGRPMKLSCVASGFLFCDYWMNWVRQSPEKGLEWVAQIRNKPYNYETYYSDSVKGRFTISRDDSKSSVYLQMNNLRVEDMGIYYCTGSYYGMDYWGQGTSVTVS chain 2 DVVMTQTPLSLPVSLGDQASISCRSSQSLVHSNGNTYLRWYLQKPGQSPKVLIYKVSNRFSGVPDRFSGSGSGTDFTLKISRVEAEDLGVYFCSQSTHVPWTFGGGTKLEIK [chain 1 T28L S30C]
fluorescein
  Kd: 0.00158 µM
[1]
  yeast surface expression: 0.839

## chain 1 EVKLDETGGGLVQPGRPMKLSCVASGFTFSDYWMNWVRQSPEKGLEWVAQIRNKPYNYETYYSDSVKGRFTISRDDSKSSVYLQMNNLRVEDMGIYYCTGSYYQMDGIGQGTSVTVS chain 2 DVVMTQTPLSLPVSLGDQASISCRSSQSLVHSNGNTYLRWYLQKPGQSPKVLIYKVSNRFSGVPDRFSGSGSGTDFTLKISRVEAEDLGVYFCSQSTHVPWTFGGGTKLEIK [chain 1 G104Q Y107G W108I]
fluorescein
  Kd: ≥ 10 µM
[1]
  yeast surface expression: 0.271

## chain 1 EVKLDETGGGLVQPGRPMKLSCVASGFTFSDYWMNWVRQSPEKGLEWVAQIRNKPYNYETYYSDSVKGRFTISRDDSKSSVYLQMNNLRVEDMGIYYCTGYYYCMDYWGQGTSVTVS chain 2 DVVMTQTPLSLPVSLGDQASISCRSSQSLVHSNGNTYLRWYLQKPGQSPKVLIYKVSNRFSGVPDRFSGSGSGTDFTLKISRVEAEDLGVYFCSQSTHVPWTFGGGTKLEIK [chain 1 S101Y G104C]
fluorescein
  Kd: ≥ 10 µM
[1]
  yeast surface expression: 0.249

## chain 1 EVKLDETGGGLVQPGRPMKLSCVASGFTFVDYAMNWVRQSPEKGLEWVAQIRNKPYNYETYYSDSVKGRFTISRDDSKSSVYLQMNNLRVEDMGIYYCTGSYYGMDYWGQGTSVTVS chain 2 DVVMTQTPLSLPVSLGDQASISCRSSQSLVHSNGNTYLRWYLQKPGQSPKVLIYKVSNRFSGVPDRFSGSGSGTDFTLKISRVEAEDLGVYFCSQSTHVPWTFGGGTKLEIK [chain 1 S30V W33A]
fluorescein
  Kd: ≥ 10 µM
[1]
  yeast surface expression: 0.748

## chain 1 EVKLDETGGGLVQPGRPMKLSCVASGFDFSDYWMNFVRQSPEKGLEWVAQIRNKPYNYETYYSDSVKGRFTISRDDSKSSVYLQMNNLRVEDMGIYYCTGSYYGMDYWGQGTSVTVS chain 2 DVVMTQTPLSLPVSLGDQASISCRSSQSLVHSNGNTYLRWYLQKPGQSPKVLIYKVSNRFSGVPDRFSGSGSGTDFTLKISRVEAEDLGVYFCSQSTHVPWTFGGGTKLEIK [chain 1 T28D W36F]
fluorescein
  Kd: 0.0154 µM
[1]
  yeast surface expression: 0.895

## chain 1 EVKLDETGGGLVQPGRPMKLSCVASGFTWSFYWMNWVRQSPEKGLEWVAQIRNKPYNYETYYSDSVKGRFTISRDDSKSSVYLQMNNLRVEDMGIYYCTGSYYGMDYWGQGTSVTVS chain 2 DVVMTQTPLSLPVSLGDQASISCRSSQSLVHSNGNTYLRWYLQKPGQSPKVLIYKVSNRFSGVPDRFSGSGSGTDFTLKISRVEAEDLGVYFCSQSTHVPWTFGGGTKLEIK [chain 1 F29W D31F]
fluorescein
  Kd: ≥ 10 µM
[1]
  yeast surface expression: 0.475

## chain 1 EVKLDETGGGLVQPGRPMKLSCVASGFTFSDYWMNWVRQSPEKGLEWVAQIRNKPYNYETYYSDSVKGRFTISRDDSKSSVYLQMNNLRVEDMGIYYCTDSYYGMDYWTQGTSVTVS chain 2 DVVMTQTPLSLPVSLGDQASISCRSSQSLVHSNGNTYLRWYLQKPGQSPKVLIYKVSNRFSGVPDRFSGSGSGTDFTLKISRVEAEDLGVYFCSQSTHVPWTFGGGTKLEIK [chain 1 G100D G109T]
fluorescein
  Kd: ≥ 10 µM
[1]
  yeast surface expression: 0.21

## chain 1 EVKLDETGGGLVQPGRPMKLSCVASGFTFSVYWMNGVRQSPEKGLEWVAQIRNKPYNYETYYSDSVKGRFTISRDDSKSSVYLQMNNLRVEDMGIYYCTGSYYGMDYWGQGTSVTVS chain 2 DVVMTQTPLSLPVSLGDQASISCRSSQSLVHSNGNTYLRWYLQKPGQSPKVLIYKVSNRFSGVPDRFSGSGSGTDFTLKISRVEAEDLGVYFCSQSTHVPWTFGGGTKLEIK [chain 1 D31V W36G]
fluorescein
  Kd: ≥ 10 µM
[1]
  yeast surface expression: 2.19

## chain 1 EVKLDETGGGLVQPGRPMKLSCVASGFTFSDYWMNWVRQSPEKGLEWVAQIRNKPYNYETYYSDSVKGRFTISRDDSKSSVYLQMNNLRVEDMGIYYCTGSEAGMDYWGQGTSVTVS chain 2 DVVMTQTPLSLPVSLGDQASISCRSSQSLVHSNGNTYLRWYLQKPGQSPKVLIYKVSNRFSGVPDRFSGSGSGTDFTLKISRVEAEDLGVYFCSQSTHVPWTFGGGTKLEIK [chain 1 Y102E Y103A]
fluorescein
  Kd: 5.1 µM
[1]
  yeast surface expression: 0.993

## chain 1 EVKLDETGGGLVQPGRPMKLSCVASGFTFNDYWMNWVRQSPEKGLEWVAQIRNKPYNYETYYSDSVKGRFTISRDDSKSSVYLQMNNLRVEDMGIYYCTGSYYGMDYWGQGTSVTVS chain 2 DVVMTQTPLSLPVSLGDQASISCRSSQSLVHSNGNTYLRWYLQKPGQSPKVLIYKVSNRFSGVPDRFSGSGSGTDFTLKISRVEAEDLGVYFCSQSTHVPWTFGGGTKLEIK [chain 1 S30N]
fluorescein
  Kd: 0.00122 µM
[1]
  yeast surface expression: 0.889

## chain 1 EVKLDETGGGLVQPGRPMKLSCVASGFTFSDYEMRWVRQSPEKGLEWVAQIRNKPYNYETYYSDSVKGRFTISRDDSKSSVYLQMNNLRVEDMGIYYCTGSYYGMDYWGQGTSVTVS chain 2 DVVMTQTPLSLPVSLGDQASISCRSSQSLVHSNGNTYLRWYLQKPGQSPKVLIYKVSNRFSGVPDRFSGSGSGTDFTLKISRVEAEDLGVYFCSQSTHVPWTFGGGTKLEIK [chain 1 W33E N35R]
fluorescein
  Kd: ≥ 10 µM
[1]
  yeast surface expression: 0.588
